Test results published in patent US20240180855A1, “BIOACTIVE PRODUCTS” (priority 2021, published 2024).

Test system: wheat
Test: Wheat growth after seed treatment with complexes of inhibitors and nucleases (Example 5)
Type: in vivo
Conditions: seeds treated 1 hour at 37° C.; cultivation 23° C.
Protocol: Plant: wheat Treatment: The seeds were treated with various products for 1 hour, at 37° C. […] Cultivation temperature 23° C.

B1: Proteinase K: protease (protein, UniProt P06873 106-384, looked up)
Proteinase K: AAQTNAPWGLARISSTSPGTSTYYYDESAGQGSCVYVIDTGIEASHPEFEGRAQMVKTYYYSSRDGNGHGTHCAGTVGSRTYGVAKKTQLFGVKVLDDNGSGQYSTIIAGMDFVASDKNNRNCPKGVVASLSLGGGYSSSVNSAAARLQSSGVMVAVAAGNNNADARNYSPASEPSVCTVGASDRYDRRSSFSNYGSVLDIFGPGTSILSTWIGGSTRSISGTSMATPHVAGLAAYLMTLGKTTAASACRYIADTANKGDLSNIPFGTVNLLAYNNYQA
Q: What does the source list for B1?
A: Chlorophyll total: 35.2 mg/g; Emergence (%): 42%; Root lenght: 4.3; Shoot length: 0.0
